B1: TRIM63 (parent)
chain: FRCPTCRHEVIMDRHGVYGLQRNL
B2: CDC14A (parent)
chain: LNLAMVYRYCCKLNKKLKSYSLSR

Variants of: B1
Assay: protein stability index of a GFP-peptide fusion (GPS, HEK-293T) (PSI 1-6); higher = more stable
Details: c terminus: a fixed tail appended
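Also: lentivirally expressed fusions sorted by FACS into six bins by GFP to DsRed ratio, PSI derived from sequencing read proportions per bin multiplied by bin number.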

Protein stability index of substitutions, site by site:
R2: I 2.79, A 2.96, F 3.38, G 3.06, K 1.77, C 2.58, E 2.55, H 2.17, D 3.32, L 1.98
F1: D 2.76, W 2.14, E 2.69, V 2.15, S 2.62, P 3.34, C 2.44, A 1.16, T 3.56, Y 1.96, M 2.72, G 1.38, N 3.53, L 3.27, K 2.91, H 2.39, I 1.47

Variants of: B2
Assay: as above
Details: c terminus: a fixed tail appended

Protein stability index, by site and new letter:
L22: R 2.31, N 1.75, C 2.92, T 2.8, P 2.24
S21: E 3.12, G 2.26, L 2.25, V 4.29, T 2.92, Q 2.86, H 2.13, D 2.01, F 2.38, A 3.27
K18: S 2.9, E 3.12, N 2.77, H 2.96, A 2.11, C 1.73
L17: T 2.08, M 3.07, N 2.54, S 2.17, C 4.4, R 2.78
K12: G 1.89, S 2.58, L 2.5, I 3.53
S23: P 2.95, F 2.69, A 3.5, W 3.77, C 2.49, E 4.66, T 3.09, K 3.42
Y20: I 3.15, S 2.63, V 2.52, R 2.17, L 2.94, D 3.34, P 4.23
Y7: I 3.1, L 3.34, F 3.48, K 2.13, S 3.42, N 2.46, Q 2.71
C10: P 2.05, V 3.25, S 2.28, A 2.41, W 3.64, E 1.98, Y 4.25, D 2.31
A4: N 3.18, K 1.59, D 4.12, F 3.74
K16: Q 2.35, P 2.42, L 2.13, F 1.63, I 1.62, W 2.81
V6: W 3.43, S 2.5, Q 2.85, R 2.78
C11: M 2.74, E 1.62, K 3, H 3.15, A 2.73, L 2.64, N 3.24
R24: I 3.79, E 2.72, T 1.99, Y 3.41, K 2.13
Y9: A 2.3, E 2.45, W 2.91, G 3.25, R 2.03
L13: E 2.48, T 2.08, C 2.79, F 3.31, P 1.2, D 2.11
M5: T 3.46, V 2.54, N 3.77, C 4.65
N14: D 2.8, A 3.35, K 3.38, M 1.94, F 2.31, I 2.38, G 3.52
L1: S 3.71, M 3.23, K 2.73, C 3.72, H 2.26
S19: W 3.46, Q 1.51, N 2.8, I 3.03, D 2.28
N2: R 2.39, I 2.14, F 1.04, E 3.15, V 1.82
R8: C 3.52, H 4.35, I 2.62, Y 2.67, L 3.17, S 2.98, T 2.03
K15: I 3.62, C 4.37, P 2.32, D 2.33, T 2.62
L3: F 3.38, Y 1.81, T 2.79, N 1.89
